Assay results taken from patent publication US20180371093A1 (Novartis, published 2018).

Key:
[1] = molecular target: T1, Programmed Death 1 (PD-1) (UniProt Q15116 25-167, limits assumed); experiment: rank among the 16 humanized clones by FACS binding data
[2] = molecular target: T1, Programmed Death 1 (PD-1); experiment: rank in competition binding against labelled murine mAb BAP049, 1st experiment
[3] = molecular target: T1, Programmed Death 1 (PD-1); experiment: rank in competition binding against labelled murine mAb BAP049, 2nd experiment
[4] = molecular target: T1, Programmed Death 1 (PD-1); experiment: FACS ligand blocking: binding of PD-L1-Ig to PD-1 at increasing mAb concentration (legend paragraph 212 names 'PD-L1-Ig and PD-L2-Ig' for FIG. 8A)

T1 sequence (Q15116 25-167 limits assumed): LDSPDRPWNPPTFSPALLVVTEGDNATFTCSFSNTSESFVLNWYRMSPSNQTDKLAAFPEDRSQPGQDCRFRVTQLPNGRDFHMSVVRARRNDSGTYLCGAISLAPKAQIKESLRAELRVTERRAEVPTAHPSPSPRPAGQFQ

Binder	Ranking FACS data [1] [rank]	Competition Binding 1st exp. (rank) [2] [rank]	Competition Binding 2nd exp. (rank) [3] [rank]	IC50 (read off the curve) [4] [µg/mL]
BAP049-hum15 (antibody, human IgG4 S228P, kappa, also called clone 15) heavy chain: not shown light chain: EIVLTQSPDFQSVTPKEKVTITCKSSQSLLDSGNQKNFLTWYQQKPGQAPRLLIYWASTRESGVPSRFSGSGSGTDFTFTISSLEAEDAATYYCQNDYSYPYTFGQGTKVEIKRTVAAPSVFIFPPSDEQLKSGTASVVCLLNNFYPREAKVQWKVDNALQSGNSQESVTEQDSKDSTYSLSSTLTLSKADYEKHKVYACEVTHQGLSSPVTKSFNRGEC	6	7	15	
BAP049-hum11 (antibody, human IgG4 S228P, kappa, Humanized mAb) heavy: not shown light: EIVLTQSPATLSLSPGERATLSCKSSQSLLDSGNQKNFLTWYQQKPGQAPRLLIYWASTRESGVPSRFSGSGSGTDFTFTISSLEAEDAATYYCQNDYSYPYTFGQGTKVEIKRTVAAPSVFIFPPSDEQLKSGTASVVCLLNNFYPREAKVQWKVDNALQSGNSQESVTEQDSKDSTYSLSSTLTLSKADYEKHKVYACEVTHQGLSSPVTKSFNRGEC	6	4	> 4	
BAP049-hum10 (antibody, human IgG4 S228P, kappa, Humanized mAb) heavy: not shown light: EIVLTQSPATLSLSPGERATLSCKSSQSLLDSGNQKNFLTWYQQKPGQAPRLLIYWASTRESGVPSRFSGSGSGTDFTFTISSLEAEDAATYYCQNDYSYPYTFGQGTKVEIKRTVAAPSVFIFPPSDEQLKSGTASVVCLLNNFYPREAKVQWKVDNALQSGNSQESVTEQDSKDSTYSLSSTLTLSKADYEKHKVYACEVTHQGLSSPVTKSFNRGEC	7	6	> 4	~1
BAP049-hum04 (antibody, human IgG4 S228P, kappa, V domains shown, also called clone 4) VH: EVQLVQSGAEVKKPGESLRISCKGSGYTFTTYWMHWIRQSPSRGLEWLGNIYPGTGGSNFDEKFKNRFTISRDNSKNTLYLQMNSLRAEDTAVYYCTRWTTGTGAYWGQGTTVTVSS VL: EIVLTQSPATLSLSPGERATLSCKSSQSLLDSGNQKNFLTWYQQKPGKAPKLLIYWASTRESGVPSRFSGSGSGTDFTFTISSLQPEDIATYYCQNDYSYPYTFGQGTKVEIKR	14	15	15	
BAP049-hum08 (antibody, human IgG4 S228P, kappa, Humanized mAb) heavy: not shown light: EIVLTQSPDFQSVTPKEKVTITCKSSQSLLDSGNQKNFLTWYQQKPGQAPRLLIYWASTRESGVPSRFSGSGSGTDFTFTISSLEAEDAATYYCQNDYSYPYTFGQGTKVEIKRTVAAPSVFIFPPSDEQLKSGTASVVCLLNNFYPREAKVQWKVDNALQSGNSQESVTEQDSKDSTYSLSSTLTLSKADYEKHKVYACEVTHQGLSSPVTKSFNRGEC	7	7	4	
BAP049-hum09 (antibody, human IgG4 S228P, kappa, Humanized mAb) heavy: not shown light: EIVLTQSPDFQSVTPKEKVTITCKSSQSLLDSGNQKNFLTWYQQKPGQAPRLLIYWASTRESGVPSRFSGSGSGTDFTFTISSLEAEDAATYYCQNDYSYPYTFGQGTKVEIKRTVAAPSVFIFPPSDEQLKSGTASVVCLLNNFYPREAKVQWKVDNALQSGNSQESVTEQDSKDSTYSLSSTLTLSKADYEKHKVYACEVTHQGLSSPVTKSFNRGEC	7	2	4	
BAP049-hum05 (antibody, human IgG4 S228P, kappa, V domains shown, Humanized mAb) VH: EVQLVQSGAEVKKPGESLRISCKGSGYTFTTYWMHWVRQATGQGLEWMGNIYPGTGGSNFDEKFKNRVTITADKSTSTAYMELSSLRSEDTAVYYCTRWTTGTGAYWGQGTTVTVSS VL: EIVLTQSPATLSLSPGERATLSCKSSQSLLDSGNQKNFLTWYQQKPGKAPKLLIYWASTRESGVPSRFSGSGSGTDFTFTISSLQPEDIATYYCQNDYSYPYTFGQGTKVEIKR	5	5	> 4	~1
BAP049-hum14 (antibody, human IgG4 S228P, kappa, also called clone 14) heavy chain: not shown light chain: EIVLTQSPATLSLSPGERATLSCKSSQSLLDSGNQKNFLTWYQQKPGQAPRLLIYWASTRESGVPSRFSGSGSGTDFTFTISSLEAEDAATYYCQNDYSYPYTFGQGTKVEIKRTVAAPSVFIFPPSDEQLKSGTASVVCLLNNFYPREAKVQWKVDNALQSGNSQESVTEQDSKDSTYSLSSTLTLSKADYEKHKVYACEVTHQGLSSPVTKSFNRGEC	16	7	15	
BAP049-hum06 (antibody, human IgG4 S228P, kappa, also called clone 6) heavy chain: not shown light chain: DIVMTQTPLSLPVTPGEPASISCKSSQSLLDSGNQKNFLTWYQQKPGQAPRLLIYWASTRESGVPSRFSGSGSGTDFTFTISSLEAEDAATYYCQNDYSYPYTFGQGTKVEIKRTVAAPSVFIFPPSDEQLKSGTASVVCLLNNFYPREAKVQWKVDNALQSGNSQESVTEQDSKDSTYSLSSTLTLSKADYEKHKVYACEVTHQGLSSPVTKSFNRGEC	1	7	3	
BAP049-hum07 (antibody, human IgG4 S228P, kappa, also called clone 7) heavy chain: not shown light chain: EIVLTQSPATLSLSPGERATLSCKSSQSLLDSGNQKNFLTWYQQKPGKAPKLLIYWASTRESGVPSRFSGSGSGTDFTFTISSLEAEDAATYYCQNDYSYPYTFGQGTKVEIKRTVAAPSVFIFPPSDEQLKSGTASVVCLLNNFYPREAKVQWKVDNALQSGNSQESVTEQDSKDSTYSLSSTLTLSKADYEKHKVYACEVTHQGLSSPVTKSFNRGEC	4	7	> 4	
BAP049-hum01 (antibody, human IgG4 S228P, kappa, V domains shown, Humanized mAb) VH: EVQLVQSGAEVKKPGESLRISCKGSGYTFTTYWMHWVRQATGQGLEWMGNIYPGTGGSNFDEKFKNRVTITADKSTSTAYMELSSLRSEDTAVYYCTRWTTGTGAYWGQGTTVTVSS VL: EIVLTQSPATLSLSPGERATLSCKSSQSLLDSGNQKNFLTWYQQKPGQAPRLLIYWASTRESGVPSRFSGSGSGTEFTLTISSLQPDDFATYYCQNDYSYPYTFGQGTKVEIKR	2	7	2	~1
BAP049-hum13 (antibody, human IgG4 S228P, kappa, also called clone 13) heavy chain: not shown light chain: DVVMTQSPLSLPVTLGQPASISCKSSQSLLDSGNQKNFLTWYQQKPGKAPKLLIYWASTRESGVPSRFSGSGSGTDFTFTISSLEAEDAATYYCQNDYSYPYTFGQGTKVEIKRTVAAPSVFIFPPSDEQLKSGTASVVCLLNNFYPREAKVQWKVDNALQSGNSQESVTEQDSKDSTYSLSSTLTLSKADYEKHKVYACEVTHQGLSSPVTKSFNRGEC	6	1	1	
BAP049-hum02 (antibody, human IgG4 S228P, kappa, V domains shown, also called clone 2) VH: EVQLVQSGAEVKKPGESLRISCKGSGYTFTTYWMHWVRQATGQGLEWMGNIYPGTGGSNFDEKFKNRVTITADKSTSTAYMELSSLRSEDTAVYYCTRWTTGTGAYWGQGTTVTVSS VL: DIQMTQSPSSLSASVGDRVTITCKSSQSLLDSGNQKNFLTWYQQKPGQAPRLLIYWASTRESGIPPRFSGSGYGTDFTLTINNIESEDAAYYFCQNDYSYPYTFGQGTKVEIKR	6	3	2	
BAP049-hum12 (antibody, human IgG4 S228P, kappa, V domains shown, also called clone 12) VH: EVQLVQSGAEVKKPGESLRISCKGSGYTFTTYWMHWVRQATGQGLEWMGNIYPGTGGSNFDEKFKNRVTITADKSTSTAYMELSSLRSEDTAVYYCTRWTTGTGAYWGQGTTVTVSS VL: DIQMTQSPSSLSASVGDRVTITCKSSQSLLDSGNQKNFLTWYLQKPGQSPQLLIYWASTRESGVPSRFSGSGSGTDFTFTISSLEAEDAATYYCQNDYSYPYTFGQGTKVEIKR	3	8	16	
Chi mAb (Tyr) (antibody, human IgG4 S228P, kappa, V domains shown, also called BAP049-chi-Y; Chi (Tyr)) VH: QVQLQQSGSELVRPGASVKLSCKASGYTFTTYWMHWVRQRPGQGLEWIGNIYPGTGGSNFDEKFKNRTSLTVDTSSTTAYMHLASLTSEDSAVYYCTRWTTGTGAYWGQGTTVTVSS VL: DIVMTQSPSSLTVTAGEKVTMSCKSSQSLLDSGNQKNFLTWYQQKPGQPPKLLIFWASTRESGVPDRFTGSGSVTDFTLTISSVQAEDLAVYYCQNDYSYPYTFGQGTKVEIKR				~0.9
Mu mAb (antibody, V domains shown, Unlabelled when its concentration is varied; also called murine anti-PD-1 mAb BAP049; Mu mAb control) VH: QVQLQQSGSELVRPGASVKLSCKASGYTFTTYWMHWVRQRPGQGLEWIGNIYPGTGGSNFDEKFKNRTSLTVDTSSTTAYMHLASLTSEDSAVYYCTRWTTGTGAYWGQGTLVTVSA VL: DIVMTQSPSSLTVTAGEKVTMSCKSSQSLLDSGNQKNFLTWYQQKPGQPPKLLIFWASTRESGVPDRFTGSGSVTDFTLTISSVQAEDLAVYYCQNDYSYPCTFGGGTKLEIK				~0.7
BAP049-hum16 (antibody, human IgG4 S228P, kappa, V domains shown, also called clone 16) VH: EVQLVQSGAEVKKPGESLRISCKGSGYTFTTYWMHWVRQAPGQGLEWMGNIYPGTGGSNFDEKFKNRFTISRDNSKNTLYLQMNSLRAEDTAVYYCTRWTTGTGAYWGQGTTVTVSS VL: EIVLTQSPDFQSVTPKEKVTITCKSSQSLLDSGNQKNFLTWYQQKPGQAPRLLIYWASTRESGVPSRFSGSGSGTDFTFTISSLEAEDAATYYCQNDYSYPYTFGQGTKVEIKR	15	16	15	
BAP049-hum03 (antibody, human IgG4 S228P, kappa, V domains shown, also called clone 3) VH: EVQLVQSGAEVKKPGESLRISCKGSGYTFTTYWMHWIRQSPSRGLEWLGNIYPGTGGSNFDEKFKNRFTISRDNSKNTLYLQMNSLRAEDTAVYYCTRWTTGTGAYWGQGTTVTVSS VL: DIQMTQSPSSLSASVGDRVTITCKSSQSLLDSGNQKNFLTWYQQKPGQAPRLLIYWASTRESGIPPRFSGSGYGTDFTLTINNIESEDAAYYFCQNDYSYPYTFGQGTKVEIKR	7	8	14	
